# Measured values: publication PMC7935764 (Structure (London, England : 1993), 2020)
# Columns and labels:
# [1] = target: IN CCD^F185K (HIV-1 (NL4-3)); assay: AUC
# [2] = target: HIV integrase CTD CTD (Human immunodeficiency virus 1) (UniProt O93215); assay: NMR; conditions: cited from earlier work
# [3] = target: HIV-1 integrase IN^F185H,L242A (HIV-1 (NL4-3)); assay: SEC-MALS
# [4] = target: HIV-1 integrase IN^F185H,L242A (HIV-1 (NL4-3)); assay: AUC
# [5] = target: IN CCD^F185K (HIV-1 (NL4-3)); assay: SEC-MALS + AUC + other: SEC-SAXS
# SEC-MALS = target: the molecule itself; assay: SEC-MALS
# SEC-SAXS = target: the molecule itself; assay: SEC-SAXS
molecule,measurement,setting,value
HFS-IN(CTD)^220-280(L242A) (from UniProt P12497 221-281) (domain or fragment),KD without BI-224436,[1],> 1000 µM
HIV integrase CTD CTD (from UniProt O93215),Kd,[2],1 µM
"HIV-1 integrase IN^F185H,L242A (enzyme)",stoichiometry N,[3],2
same,stoichiometry N,[4],2
IN CCD^F185K (domain or fragment),stoichiometry N,[5],2
"His6-FLAG-SUMO (HFS)-tagged CTD^220-270, wild type (domain or fragment) IQNFRVYYRDSRDPVWKGPAKLLWKGEGAVVIQDNSDIKVVPRRKAKIIRD",stoichiometry N,SEC-MALS,2
CTD^220-270 (domain or fragment) IQNFRVYYRDSRDPVWKGPAKLLWKGEGAVVIQDNSDIKVVPRRKAKIIRD,stoichiometry N,SEC-SAXS,2
